In general, Km refers to the substrate concentration at which the rate is half of its maximum.

This passage reports Ki and Km results from US5494912A, “9-purinyl phosphonic acid derivitives for treating gout” (Merrell Pharmaceuticals Inc., priority 1995, dated 1996).

In series [1] the target is T1, purine nucleoside phosphorylase (PNP) (Bos taurus, UniProt P55859).
T1 construct: Spleen; from tissue; host or cells: spleen
T1 sequence (P55859 1-289): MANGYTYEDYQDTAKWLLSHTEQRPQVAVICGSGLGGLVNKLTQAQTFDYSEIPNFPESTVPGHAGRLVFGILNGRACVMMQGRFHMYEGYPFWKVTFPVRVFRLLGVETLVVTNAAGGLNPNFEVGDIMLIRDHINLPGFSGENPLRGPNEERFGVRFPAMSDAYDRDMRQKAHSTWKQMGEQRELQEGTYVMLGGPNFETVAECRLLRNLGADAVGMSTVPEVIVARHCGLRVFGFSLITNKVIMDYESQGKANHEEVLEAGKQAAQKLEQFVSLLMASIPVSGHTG
In words: PNP inhibition, coupled xanthine oxidase method of Kalckar, bovine spleen PNP. Type of series: biochemical.

In series [2] the target is T2, purine nucleoside phosphorylase (PNP) (Homo sapiens, UniProt P00491).
T2 construct: Erythrocytes; from tissue; host or cells: erythrocytes
T2 sequence (P00491 1-289): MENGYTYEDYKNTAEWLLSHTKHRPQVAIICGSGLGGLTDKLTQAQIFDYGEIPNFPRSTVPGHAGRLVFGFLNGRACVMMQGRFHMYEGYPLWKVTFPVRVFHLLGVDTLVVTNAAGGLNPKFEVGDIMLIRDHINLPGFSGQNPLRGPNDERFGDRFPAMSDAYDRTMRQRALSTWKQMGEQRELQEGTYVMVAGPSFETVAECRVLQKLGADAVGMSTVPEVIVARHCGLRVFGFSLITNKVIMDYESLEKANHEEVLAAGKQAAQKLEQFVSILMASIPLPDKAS
Nature of the series: PNP inhibition, coupled xanthine oxidase method of Kalckar, human erythrocyte PNP. The settings on record: 1 mM inorganic phosphate, 0.1M HEPES pH 7.4, inosine 0.05-0.15 mM as substrate; read-out: Ki (apparent dissociation constant), Human Erythrocytes PNP. Type of series: biochemical.

Substrate in series [3]: OC[C@H]1O[C@@H](n2cnc3c(O)ncnc32)[C@H](O)[C@@H]1O
In words: PNP inhibition, coupled xanthine oxidase method of Kalckar, bovine spleen PNP. The following applies: other: substrate KM for comparison with Ki; pH 7.4. Type of series: biochemical.

Substrate in series [4]: OC[C@H]1O[C@@H](n2cnc3c(O)ncnc32)[C@H](O)[C@@H]1O
Nature of the series: PNP inhibition, coupled xanthine oxidase method of Kalckar, human erythrocyte PNP. Type of series: biochemical. The following applies: other: substrate KM for comparison with Ki; pH 7.4.

Substrate in series [5]: OC[C@H]1O[C@@H](n2cnc3c(O)ncnc32)[C@H](O)[C@@H]1O
Nature of the series: PNP inhibition, coupled xanthine oxidase method of Kalckar, E. coli PNP. Type of series: biochemical. The following applies: other: substrate KM for comparison with Ki; pH 7.4.

Substrate in the series “purified protein”: OC[C@H]1O[C@@H](n2cnc3c(O)ncnc32)[C@H](O)[C@@H]1O
In words: purified protein. The following applies: other: substrate KM for comparison with Ki; pH 7.4.

On to `Nc1nc2c(ncn2Cc2ccccc2OCP(=O)(O)O)c(=O)[nH]1` [[2-[(2-amino-1,6,dihydro-6-oxo-9H-purin-9yl)methyl]phenoxy]methylphosphonic acid], for which the Ki in series [1] was 7.5 nM.
`Nc1nc2c(ncn2Cc2ccccc2OCCC(F)(F)P(=O)(O)O)c(=O)[nH]1` yielded a Ki in series [1] of 250 nM.
On to `Nc1nc2c(ncn2Cc2ccccc2C(F)C(F)(F)P(=O)(O)O)c(=O)[nH]1` (stereo not shown) [[2-[2-[(2-amino-1,6-dihydro-6-oxo-9H-purin-9-yl)methyl]phenyl]-1,1,2-trifluoroethyl]phosphonic acid], for which, in series [2], the Ki is 1.3 nM.

B1: purine nucleoside phosphorylase (PNP) (Bos taurus) (protein)
chain: MANGYTYEDYQDTAKWLLSHTEQRPQVAVICGSGLGGLVNKLTQAQTFDYSEIPNFPESTVPGHAGRLVFGILNGRACVMMQGRFHMYEGYPFWKVTFPVRVFRLLGVETLVVTNAAGGLNPNFEVGDIMLIRDHINLPGFSGENPLRGPNEERFGVRFPAMSDAYDRDMRQKAHSTWKQMGEQRELQEGTYVMLGGPNFETVAECRLLRNLGADAVGMSTVPEVIVARHCGLRVFGFSLITNKVIMDYESQGKANHEEVLEAGKQAAQKLEQFVSLLMASIPVSGHTG
notes: Spleen; from tissue; host or cells: spleen
In the case of B1, the Km in series [3] is 30 µM.

B2: purine nucleoside phosphorylase (PNP) (Homo sapiens) (protein)
chain: MENGYTYEDYKNTAEWLLSHTKHRPQVAIICGSGLGGLTDKLTQAQIFDYGEIPNFPRSTVPGHAGRLVFGFLNGRACVMMQGRFHMYEGYPLWKVTFPVRVFHLLGVDTLVVTNAAGGLNPKFEVGDIMLIRDHINLPGFSGQNPLRGPNDERFGDRFPAMSDAYDRTMRQRALSTWKQMGEQRELQEGTYVMVAGPSFETVAECRVLQKLGADAVGMSTVPEVIVARHCGLRVFGFSLITNKVIMDYESLEKANHEEVLAAGKQAAQKLEQFVSILMASIPLPDKAS
notes: Erythrocytes; from tissue; host or cells: erythrocytes
Regarding B2, in series [4], the Michaelis-Menten constant (Km) came out at 150 µM.

B3: purine nucleoside phosphorylase (PNP) (Escherichia coli K-12) (protein)
chain: ATPHINAEMGDFADVVLMPGDPLRAKYIAETFLEDAREVNNVRGMLGFTGTYKGRKISVMGHGMGIPSCSIYTKELITDFGVKKIIRVGSCGAVLPHVKLRDVVIGMGACTDSKVNRIRFKDHDFAAIADFDMVRNAVDAAKALGIDARVGNLFSADLFYSPDGEMFDVMEKYGILGVEMEAAGIYGVAAEFGAKALTICTVSDHIRTHEQTTAAERQTTFNDMIKIALESVLLGDKE
B3: in series [5], the Km amounted to 80 µM.

B4: purine nucleoside phosphorylase (PNP) (Rattus norvegicus) (protein)
chain: MENEFTYEDYQRTAEWLRSHTKHRPQVAVICGSGLGGLTAKLTQPQAFDYNEIPNFPQSTVQGHAGRLVFGFLNGRSCVMMQGRFHMYEGYSLSKVTFPVRVFHLLGVDTLVVTNAAGGLNPKFEVGDIMLIRDHINLPGFCGQNPLRGPNDERFGVRFPAMSDAYDRDMRQKAFNAWKQMGEQRELQEGTYIMSAGPTFETVAESCLLRMLGADAVGMSTVPEVIVARHCGLRVFGFSLITNKVVMDYNNLEKASHQEVLEAGKAAAQKLEQFVSILMESIPPRERAN
B4: the Km in “purified protein” turned out to be 150 µM.
